In US20150231240A1, “ANTI-C16ORF54 ANTIBODIES AND METHODS OF USE THEREOF” (priority 2012, published 2015):
Numbering of substitutions follows the chain as printed.

B1: R29-7-1C: murine anti-C16orf54 monoclonal antibody, IgG2a; VH SEQ ID NO: 8, VL SEQ ID NO: 10 (antibody, V domains shown)
VH: MRVLILLWLFTAFPGILSDVQLQESGPGLVKPSQSLSLTCTVTGYSITSDYAWNWIRQFPGNKLEWMGYISYSGSIRYNPSLKSRISITRDTSKNQFFLQLNSVTTEDTATYYCAREKYDNYYYAMDYWGQGTSVTVSS
VL: MDSQAQVLMLLLLWVSGTCGDIVMSQSPSSLAVSVGEKVTLSCKSSQNLLYSTNQKNYLAWYQQKPGQSPKLLIYWASTRESGVPDRFTGSGSGTDFTLTISSVKAEDLAVYYCQQYYSYRTFGGGTKLEIK
modifications: R29-7-1C heavy chain variable region; R29-7-1C light chain variable region
B2: R29-67-7A: murine anti-C16orf54 monoclonal antibody, IgG2a; VH SEQ ID NO: 12, VL SEQ ID NO: 14 (antibody, V domains shown)
VH: B1 VH with S71N, S75R, I76T, K83N, I88L, K94T, K118N, N121Y, Y122E, Y123F
VL: B1 VL with D2E, L41M, T53S, S119I
modifications: R29-67-7A heavy chain variable region; R29-67-7A light chain variable region

What was measured:
C16orf54 ECD peptides = assay: Peptide crossblocking (Table 36); type: binding
human C16orf54 = molecular target: T1, human C16orf54 (Homo sapiens, UniProt Q6UWD8); assay: Flow cytometry reactivity with sarcoma cells expressing human C16orf54 (fold change over isotype); type: binding; details: for binding to human C16orf54 (flow cytometry): sarcoma cells expressing human C16orf54, 10 μg/ml antibody
T1 construct: expressed in transfected cells; host or cells: murine sarcoma cells (D42M1-huC16orf54)
T1 sequence (Q6UWD8 1-224): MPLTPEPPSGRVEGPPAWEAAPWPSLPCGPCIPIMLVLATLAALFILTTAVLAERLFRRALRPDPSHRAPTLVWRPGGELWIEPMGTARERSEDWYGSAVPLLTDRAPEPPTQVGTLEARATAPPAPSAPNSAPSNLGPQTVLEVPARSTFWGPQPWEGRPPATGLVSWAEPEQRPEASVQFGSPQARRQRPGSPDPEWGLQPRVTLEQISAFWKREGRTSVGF
Method: Anti-C16orf54 antibodies which bound to human C16orf54 were tested for their reactivity with human C16orf54 and their crossreactivity with C16orf54 from cynomolgous monkeys (cyno C16orf54) using flow cytometry. Sarcoma cells transfected with and expressing human C16orf54 or cyno C16orf54 were washed with PBS with 0.1% BSA, incubated with FcX receptor blocking solution (BioLegend) for 15 minutes, incubated with 10 μg/ml of anti-C16orf54 antibody for 1 hour at 4° C., washed twice with PBS with 0.1% BSA, incubated with 20 μg/ml of R-Phycoerythrin-AffiniPure F(ab′)2 Fragment Goat Anti-Mouse IgG, Fcγ Fragment Specific (Jackson ImmunoResearch) for 30 minutes at 4° C., washed twice with PBS with 0.1% BSA, incubated with the viability dye TO-PRO-3 iodide (Life Technologies), and immediately analyzed on a MACSQuant Analyzer instrument (Miltenyi). For each cell line and anti-C16orf54 antibody, a fold change was derived by dividing the median fluorescence intensity for Phycoerythrin in the live cell population for the anti-C16orf54 antibody by the median fluorescence intensity for Phycoerythrin in the live cell population for the IgG isotype control antibody.

[1] = tested on: human C16orf54 extracellular domain peptides; assay: C16orf54 peptide ELISA, human extracellular domain peptides; type: binding; details: human, cyno, or mouse extracellular domain peptides, not told apart; 10 μg/ml antibody
Method: Anti-C16orf54 antibodies which bind to human C16orf54, including antibodies that are crossreactive with cyno C16orf54, were tested for their binding to various peptides derived from C16orf54 in a peptide ELISA. A 384-well high binding black microplate (Greiner) was incubated with 2 μg/ml of protein (human, cyno, or mouse extracellular domain peptides) for 16 hours, incubated for 1 hr with a blocking buffer (PBS with 5% Fetal Bovine Serum), washed four times with TBS with Tween, incubated for 1 hour with 10 μg/ml of anti-C16orf54 antibody, washed four times with TBS with Tween, incubated for 1 hour with 10 μg/ml of Peroxidase-AffiniPure Goat Anti-Mouse IgG, Fcγ Fragment Specific (Jackson ImmunoResearch), washed four times with TBS with Tween, and peroxidase was detected with a luminometer (Molecular Devices) upon addition of SuperSignal® ELISA Pico Chemiluminescent Substrate (Thermo Scientific). The luminescence signal was determined.

[2] = molecular target: T2, extracellular domain of c16orf54 (amino acids 1-31) fused to human IgG1 Fc (Homo sapiens, UniProt Q6UWD8); assay: C16orf54 peptide-Fc fusion protein ELISA; type: binding; details: serial dilution of antibody; HRP-conjugated anti mouse secondary
T2 construct: the extracellular domain of c16orf54 (amino acids 1-31) either N terminal or C-terminal to a human IgG1 Fc domain; made in house; host or cells: 293 T cells, transient; Protein A purification
T2 sequence (Q6UWD8 1-31 limits assumed): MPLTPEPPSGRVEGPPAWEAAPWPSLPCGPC
Method: Anti-C16orf54 antibodies which bind to human C16orf54, including antibodies that are crossreactive with cyno C16orf54, were tested for their binding to various peptides derived from C16orf54 that were fused to human IgG (e.g., IgG1) constant regions to generate various peptide-Fc fusion proteins in an Fc-based ELISA. An exemplary Fc sequence comprises an IgG1 Hinge region sequence and IgG1 CH3 and […] domain sequences.
The fusion proteins were transiently expressed in 293 T cells. Protein was purified from the 293 expression supernatants by Protein A-based affinity purification. Exemplary C16 peptide-Fc fusion constructs that were made and purified are shown with their protein yield in Table 38. ELISA assays were performed by coating 384 well plates with the fusion proteins overnight at 4C. Antibodies were analyzed by serial dilution with concentrations ranging from 40 ug/mL to […]. Binding was detected with an HRP-conjugated anti mouse secondary antibody.

[3] = tested on: human erythroid and myeloid progenitors (normal human bone marrow); assay: Colony forming unit (CFU) progenitor cell assays; type: cell-based; details: for BFU-E / CFU-E / CFU-GEMM / CFU-GM / Total CFC / Total Erythroid: colonies after 14 days; for direct effect on colony number or colony size of bone marrow progenitors: 0.032-100 μg/ml added directly into the methylcellulose matrix, 14 days; for indirect effect on colony number or colony size of progenitors: 0.032-100 μg/ml, 24 hours liquid culture, then methylcellulose matrix
Method: Colony forming unit (CFU) assays were performed to establish if there is binding of anti-C16orf54 antibodies to various progenitor cells including: CFU-E: colony forming unit erythroid (erythroid colony forming cells); BFU-E: burst forming unit erythroid (earliest known erythroid precursor cells); CFU-GM: colony forming unit granulocyte/macrophage (granulocyte-macrophage colony forming cells); and CFU-GEMM: colony forming unit granulocyte, erythrocyte, monocyte/macrophage, megakaryocyte (most primitive colony-forming cells). […] Clogenic progenitors of the human erythroid and myeloid lineages were set up in methylcellulose-based medium. All test antibodies and reagents were added to the medium at indicated concentrations. Triplicate cultures were initiated for each condition. Following 14 days in culture myeloid and erythroid colonies were assessed microscopically and scored. For these assays, anti-C16orf54 antibodies were evaluated for their direct and indirect effects on human erythroid and myeloid progenitor proliferation. […] Indirect effects on progenitors were assessed by incubating the cells with these antibodies in a liquid culture for 24 hours and subsequent culture of these cells in the methylcellulose matrix.

Row | Molecule | Peptide crossblocking (C16orf54 ECD peptides) | binding to C16orf54-expressing cells (dual binders) (human C16orf54) | binding to human C16orf54 (flow cytometry) (human C16orf54) | binding to peptides derived from the extracellular domain of C16orf54 (peptide ELISA) [1] | binding to peptide-Fc fusion proteins (Fc-based ELISA) [2] | BFU-E ([3]; 0.032 μg/ml) | CFU-E ([3]; 0.032 μg/ml) | CFU-GM ([3]; 0.032 μg/ml) | Total CFC ([3]; 0.032 μg/ml) | Total Erythroid ([3]; 0.032 μg/ml) | BFU-E ([3]; 0.8 μg/ml) | CFU-E ([3]; 0.8 μg/ml) | CFU-GM ([3]; 0.8 μg/ml) | Total CFC ([3]; 0.8 μg/ml) | Total Erythroid ([3]; 0.8 μg/ml) | BFU-E ([3]; 4 μg/ml) | CFU-E ([3]; 4 μg/ml) | CFU-GM ([3]; 4 μg/ml) | Total CFC ([3]; 4 μg/ml) | Total Erythroid ([3]; 4 μg/ml) | also measured
1 | B1 | none | bind to C16orf54-expressing cells | bind human C16orf54 | bind to the various peptides derived from the extracellular domain (ECD) of C16orf54 | able to bind to the peptide-Fc fusion proteins | 31 +/− 2 | 8 +/− 2 | 45 +/− 3 | 83 +/− 4 | 38 +/− 4 | 31 +/− 2 | 8 +/− 2 | 42 +/− 4 | 82 +/− 3 | 39 +/− 4 | 32 +/− 2 | 7 +/− 2 | 44 +/− 4 | 82 +/− 6 | 38 +/− 3 | CFU-GEMM ([3]; 0.032 μg/ml): 1 +/− 1; CFU-GEMM ([3]; 0.8 μg/ml): 1 +/− 1; BFU-E ([3]; 20 μg/ml): 28 +/− 5; CFU-E ([3]; 20 μg/ml): 8 +/− 2; CFU-GEMM ([3]; 20 μg/ml): 1 +/− 1; CFU-GM ([3]; 20 μg/ml): 40 +/− 5; Total CFC ([3]; 20 μg/ml): 76 +/− 8; Total Erythroid ([3]; 20 μg/ml): 36 +/− 4; BFU-E ([3]; 100 μg/ml): 30 +/− 3; CFU-E ([3]; 100 μg/ml): 8 +/− 3; CFU-GEMM ([3]; 100 μg/ml): 1 +/− 1; CFU-GM ([3]; 100 μg/ml): 44 +/− 4; Total CFC ([3]; 100 μg/ml): 82 +/− 4; Total Erythroid ([3]; 100 μg/ml): 38 +/− 4; direct effect on colony number or colony size of bone marrow progenitors [3]: no effect on colony number or colony size of bone marrow progenitors; indirect effect on colony number or colony size of progenitors [3]: no effect on colony number or colony size
2 | B2 | aa1-31, aa1-15 | bind to C16orf54-expressing cells | bind human C16orf54 | bind to the various peptides derived from the extracellular domain (ECD) of C16orf54 | able to bind to the peptide-Fc fusion proteins | 28 +/− 2 | 7 +/− 2 | 39 +/− 3 | 74 +/− 4 | 35 +/− 1 | 32 +/− 3 | 7 +/− 2 | 43 +/− 5 | 81 +/− 6 | 38 +/− 5 | 30 +/− 2 | 9 +/− 2 | 43 +/− 2 | 81 +/− 1 | 39 +/− 3 | BFU-E ([3]; 20 μg/ml): 33 +/− 3; CFU-E ([3]; 20 μg/ml): 6 +/− 2; CFU-GEMM ([3]; 20 μg/ml): 1 +/− 1; CFU-GM ([3]; 20 μg/ml): 40 +/− 1; Total CFC ([3]; 20 μg/ml): 79 +/− 4; Total Erythroid ([3]; 20 μg/ml): 39 +/− 3; BFU-E ([3]; 100 μg/ml): 32 +/− 2; CFU-E ([3]; 100 μg/ml): 7 +/− 2; CFU-GM ([3]; 100 μg/ml): 43 +/− 6; Total CFC ([3]; 100 μg/ml): 83 +/− 5; Total Erythroid ([3]; 100 μg/ml): 39 +/− 3; direct effect on colony number or colony size of bone marrow progenitors [3]: no effect on colony number or colony size of bone marrow progenitors; indirect effect on colony number or colony size of progenitors [3]: no effect on colony number or colony size
